# Source: patent publication US20230192839A1, “ANTIBODIES HAVING CONDITIONAL AFFINITY AND METHODS OF USE THEREOF” (PFIZER INC., priority 2017, published 2023)
# B1: P02_D09: anti-CD33 clone with conditional affinity; VH SEQ ID NO: 35, VL SEQ ID NO: 36; also as scFv in CAR (antibody, V domains shown)
# VH: QVQLVESGGGLVQAGGSLRLSCAASRRSSRSWAMHWVRQAPGKGLEWVAVISYDGRLKYYADSVKGRFTISRDNAEYLVYLQMNSLRAEDTAVYYCAAEEGDGGFFDYWGQGTLVTVSS
# VL: QSVLTQPPSASGTPGQRVTISCSGSSSNIGSNYVNWYQQLPGTAPKLLIYRNNERPSGVPDRFSGSKSGTSASLAISGLRSEDEADYYCAAWDGSLSGRGVFGTGTKLTVL
# modifications: Synthetic Antibody
# notes: also as scFv in CAR
# Tested on: human CD33
# Experiment: Biacore SPR binding kinetics of anti-CD33 scFv-Fc clones with or without 10 µM MTX
# From the text: The first 4 rounds of panning used biotinylated CD33 antigen captured on streptavidin or neutravidin coated 96-well plates. […] 1536 clones were randomly chosen from the 4th and 5th round of panning against the CD33 antigen and their binding specificity determined by phage ELISA. Clones that specifically bound to CD33 were sequenced and all unique clones were subjected to a phage competition ELISA to assess their relative affinities to CD33 and sensitivity to MTX by measuring their binding strengths in the presence or absence of 10 µM (micromolar) MTX (i.e. in 0 or 10 µM MTX).
# All binding kinetics analysis was performed on label-free Biacore surface plasmon biosensors (Biacore T200™ from GE Life Sciences) at 37° C. in 10 mM Hepes pH 7.4, 150 mM NaCl, 0.05% Tween-20 (HBST+), with or without 10 µM MTX. The Biacore data were processed in Biacore T200 Evaluation Software, and the data were double-referenced (Myszka, 1999, J Mol Recognit 12(5):279-284) and fit globally to a simple Langmuir with mass transport model to determine the equilibrium dissociation constant, KD, from the ratio of the kinetic rate constants (KD = koff/kon). In some cases the binding of antigen was very low (or not detectable) in the presence of 10 µM MTX and as a result kinetic rate constants could not be accurately determined. In these cases, a KD (or KD limit) was estimated based on the binding response at the highest analyte concentration tested or based on the typical limit of detection for a Biacore T200.
# [1] = CD33, 0 µM MTX, 37° C., pH 7.4, scFv-Fc
molecule,measurement,setting,value
B1,affinity for CD33 in the presence of MTX as compared to absence (in words),10 µM MTX vs 0 µM MTX,significantly greater affinity toward CD33 (i.e. lower KD) in the absence of MTX than in the presence of MTX
same,"koff, kinetics toward antigen with 0 µM MTX",[1],0.018 s⁻¹
same,"kon, kinetics toward antigen with 0 µM MTX",[1],40000 M⁻¹ s⁻¹
same,Kd,"CD33, 10 µM MTX, 37° C., pH 7.4, koff/kon, or estimated from binding response / limit of detection for weak interactions, read-out: KD, kinetics toward antigen with 10 µM MTX",> 9.29 µM
